In the supplement of paper PMC12667976:
± gives the standard error.

B1: library; numbered along this chain (parent)
chain: MATDAALRRLLRLHRTEIAVAVDSAFPLLHALADHDVVPEDKFQETLHLKEKEGCPQAFHALLSWLLTQDSTAILDFWRVLFKDYNLERYGRLQPILDSFPKDVDLSQPRKGRKPPAVPKALVPPPRLPTKRKASEEARAAAPAALTPRGTASPGSQLKAKPPKKPESSAEQQRLPLGNGIQTMSASVQRAVAMSSGDVPGARGAVEGILIQQVFESGGSKKCIQVGGEFYTPSKFEDSGSGKNKARSSSGPKPLVRAKGAQGAAPGGGEARLGQQGSVPAPLALPSDPQLHQKNEDECAVCRDGGELICCDGCPRAFHLACLSPPLREIPSGTWRCSSCLQATVQEVQPRAEEPRPQEPPVETPLPPGLRSAGEEVRGPPGEPLAGMDTTLVYKHLPAPPSAAPLPGLDSSALHPLLCVGPEGQQNLAPGARCGVCGDGTDVLRCTHCAAAFHWRCHFPAGTSRPGTGLRCRSCSGDVTPAPVEGVLAPSPARLAPGPAKDDTASHEPALHRDDLESLLSEHTFDGILQWAIQSMARPAAPFPS

Variants of: B1
Assay: AIRE transcriptional activation functional score (insulin promoter-GFP; nonsense median 0, synonymous median 1) (normalised score); higher = higher AIRE activity (more reporter activation)
Conditions: with insulin promoter-GFP reporter in HEK293
Method in brief: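 Flp-In T-REx HEK293 landing-pad cells carrying an insulin core promoter-GFP reporter received codon-optimized AIRE NNN-codon libraries (three regions) through Bxb1 recombinase. Sorting of mCherry+, BFP− integrants took place at day 7, followed by 7 days of expansion and tile-sequencing of top 10% GFP and unselected integrant populations. A functional score was derived from select versus non-select variant enrichment with wild type subtracted. Values from variants reaching 10 counts per million in non-select were set to nonsense median 0 and synonymous median 1 and averaged over biological replicates.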

A160I and A160G are within error of each other in “AIRE transcriptional activation functional score” value: 0.857 ± 0.48 for the first, 0.964 ± 0.44 for the second.

Compared with P252Y, C446I is lower in “AIRE transcriptional activation functional score” value: 0.649 ± 0.21 for the first, 0.167 ± 0.25 for the second.

N295I and N295S are within error of each other in “AIRE transcriptional activation functional score” value: 0.856 ± 0.15 for the first, 0.92 ± 0.26 for the second.

First: K165M
Second: K165A
The “AIRE transcriptional activation functional score” value of the first is higher: 1.15 ± 0.16 for the first, -0.0692 ± 0.52 for the second.

Going from L11A to K42M, the “AIRE transcriptional activation functional score” value rises from -0.709 ± 0.55 to 0.538 ± 0.17.

Compared with S412H, L63A is lower in “AIRE transcriptional activation functional score” value: 1.26 ± 0.24 for the first, 0.181 ± 0.47 for the second.

D76S and P129R are within error of each other in “AIRE transcriptional activation functional score” value: 0.371 ± 0.14 for the first, 0.451 ± 0.35 for the second.

First: E137A
Second: E137T
The “AIRE transcriptional activation functional score” value of the first is higher: 1.36 ± 0.64 for the first, 0.166 ± 0.34 for the second.

Compared with L320G, R8W is lower in “AIRE transcriptional activation functional score” value: 0.879 ± 0.17 for the first, -0.126 ± 0.086 for the second.

Going from R8C to V484A, the “AIRE transcriptional activation functional score” value rises from 0.131 ± 0.12 to 0.726 ± 0.16.

Going from V484W to E329F, the “AIRE transcriptional activation functional score” value rises from 1.18 ± 0.11 to 1.58 ± 0.24.

First: T447M
Second: A399Y
The “AIRE transcriptional activation functional score” value of the first is higher: 1.49 ± 0.076 for the first, -0.0769 ± 0.047 for the second.

Compared with A399F, Q262C is lower in “AIRE transcriptional activation functional score” value: 1.64 ± 0.071 for the first, 0.939 ± 0.13 for the second.

Going from V80R to G477D, the “AIRE transcriptional activation functional score” value rises from -0.324 ± 0.6 to 0.678 ± 0.17.

Compared with S217P, K120T is higher in “AIRE transcriptional activation functional score” value: 0.572 ± 0.49 for the first, 1.79 ± 0.48 for the second.

Going from E522L to E522F, the “AIRE transcriptional activation functional score” value rises from -0.299 ± 0.18 to 0.252 ± 0.14.

First: P360A
Second: L28M
The “AIRE transcriptional activation functional score” value of the first is higher: 0.888 ± 0.13 for the first, 0.175 ± 0.25 for the second.

A265N and A265M are within error of each other in “AIRE transcriptional activation functional score” value: 1.54 ± 0.1 for the first, 1.55 ± 0.059 for the second.

Compared with H458D, R351H is lower in “AIRE transcriptional activation functional score” value: 1.4 ± 0.42 for the first, 0.73 ± 0.091 for the second.

R351W and A5T are within error of each other in “AIRE transcriptional activation functional score” value: 0.833 ± 0.039 for the first, 1.04 ± 0.38 for the second.

A5R and L323A are within error of each other in “AIRE transcriptional activation functional score” value: 1.72 ± 0.62 for the first, 1.11 ± 0.27 for the second.

Compared with R272Y, R272M is higher in “AIRE transcriptional activation functional score” value: 0.677 ± 0.23 for the first, 1.31 ± 0.061 for the second.

Going from R272E to Q172M, the “AIRE transcriptional activation functional score” value rises from 1.08 ± 0.17 to 2.4 ± 0.11.

Q172K and S71H are within error of each other in “AIRE transcriptional activation functional score” value: 0.844 ± 0.4 for the first, 1.32 ± 0.71 for the second.

R247W and R247G are within error of each other in “AIRE transcriptional activation functional score” value: 0.502 ± 0.025 for the first, 0.529 ± 0.32 for the second.

D70F and D70I are within error of each other in “AIRE transcriptional activation functional score” value: -0.152 ± 0.57 for the first, 0.395 ± 0.96 for the second.

G267R and G467M are within error of each other in “AIRE transcriptional activation functional score” value: 0.84 ± 0.46 for the first, 0.866 ± 0.058 for the second.

Going from D288K to D288A, the “AIRE transcriptional activation functional score” value rises from 0.535 ± 0.27 to 1.19 ± 0.096.

Compared with Q530P, S220T is higher in “AIRE transcriptional activation functional score” value: 0.385 ± 0.2 for the first, 0.905 ± 0.032 for the second.

Compared with W335V, W335F is lower in “AIRE transcriptional activation functional score” value: 1.24 ± 0.14 for the first, 0.764 ± 0.1 for the second.

Compared with Q108E, R336Y is lower in “AIRE transcriptional activation functional score” value: 1.66 ± 0.33 for the first, 0.141 ± 0.34 for the second.

First: R336L
Second: S64D
The “AIRE transcriptional activation functional score” value of the first is higher: 0.658 ± 0.29 for the first, -0.252 ± 0.077 for the second.

S64T and E485M are within error of each other in “AIRE transcriptional activation functional score” value: 0.485 ± 0.82 for the first, -0.286 ± 0.13 for the second.

First: C437V
Second: S156C
The “AIRE transcriptional activation functional score” value of the first is lower: 0.168 ± 0.1 for the first, 1.38 ± 0.2 for the second.

First: G242A
Second: G242E
The “AIRE transcriptional activation functional score” value of the first is higher: 1.19 ± 0.18 for the first, 0.0818 ± 0.052 for the second.

R473F and K243C are within error of each other in “AIRE transcriptional activation functional score” value: 0.997 ± 0.18 for the first, 0.711 ± 0.25 for the second.

K253P and R15D are within error of each other in “AIRE transcriptional activation functional score” value: 0.292 ± 0.33 for the first, 0.279 ± 0.29 for the second.

P27A and A2S are within error of each other in “AIRE transcriptional activation functional score” value: 0.562 ± 0.76 for the first, 1.27 ± 0.12 for the second.

Going from G269T to G527V, the “AIRE transcriptional activation functional score” value falls from 1.51 ± 0.13 to 0.0961 ± 0.18.

V118I and A317T are within error of each other in “AIRE transcriptional activation functional score” value: 1.01 ± 0.14 for the first, 0.717 ± 0.36 for the second.

Compared with K50R, K131M is lower in “AIRE transcriptional activation functional score” value: 0.745 ± 0.42 for the first, 0.154 ± 0.08 for the second.

First: K131D
Second: R190S
The “AIRE transcriptional activation functional score” value of the first is lower: -0.154 ± 0.41 for the first, 0.821 ± 0.34 for the second.
